Reference: patent US11471509B2, “Compositions and methods relating to myomaker-induced muscle cell fusion” (The Board of Regents of the University of Texas System, priority 2013, dated 2022)

Tests used:
C2C12 myoblasts = assay: Retroviral over-expression in C2C12 cells, myoblast fusion; type: cell-based; conditions: 4 days of differentiation
[1] = tested on: 10T1/2 fibroblasts mixed with C2C12 cells; assay: Cell mixing: infected 10T1/2 fibroblasts with C2C12 myoblasts; type: cell-based
Description: WT myoblasts were mixed with either Myomaker+/− or Myomaker−/− myoblasts at equal ratios (approximately 1×10^5 cells per genotype), plated on a well of a laminin coated 12-well plate, and induced to differentiate the next day. 10T1/2 fibroblasts were infected with either GFP- and empty-retrovirus or GFP- and Myomaker-retrovirus for 18 h. After infection, cells were washed multiple times and then trypsinized, and mixed with C2C12 myoblasts at a 1:1 ratio (1×10^5 of each cell type) and plated on one well of a 6 well plate in differentiation media. GFP and myosin expression was analyzed 4 days after differentiation. […]
Each histological analysis of embryonic skeletal muscle was performed on four samples per genotype. The differentiation index was calculated as the percentage of nuclei in myosin-positive cells. The fusion index was calculated as the percentage of nuclei contained in myosin-positive myotubes. […] To quantitate fusion between WT myoblasts and either Myomaker+/− or Myomaker−/− myoblasts, the inventors calculated the percentage of LacZ+ myotubes containing ≥3 nuclei. To quantitate fusion between fibroblasts and myoblasts, the inventors calculated the percentage of GFP+ myosin+ cells or the percentage of BrdU+ myotube nuclei. For each quantitation, at least 3 independent experiments were performed in duplicate and at least 6 random fields were imaged per sample. […]

Row | Molecule | myoblast fusion after forced expression (C2C12 myoblasts) | fusion of infected fibroblasts with C2C12 cells ([1]; 10T1/2 fibroblasts infected with GFP and Myomaker virus, mixed 1:1 with C2C12, 4 days differentiation) | fusion of fibroblasts in the absence of myoblasts ([1]; fibroblasts expressing Myomaker, no myoblasts)
1 | Myomaker: muscle-specific membrane protein of 221 residues, expressed from pBabe-X retrovirus (protein, UniProt Q9D1N4 1-221, looked up) Protein myomaker: MGTVVAKLLLPTLSSLAFLPTVSIATKRRFYMEAMVYLFTMFFVAFSHACDGPGLSVLCFMRRDILEYFSIYGTALSMWVSLMALADFDEPQRSTFTMLGVLTIAVRTFHDRWGYGVYSGPIGTATLIIAVKWLKKMKEKKGLYPDKSIYTQQIGPGLCFGALALMLRFFFEEWDYTYVHSFYHCALAMSFVLLLPKVNKKAGNAGAPAKLTFSTLCCTCV | dramatic increase in fusion | robustly fused with C2C12 cells | not sufficient to induce fusion of fibroblasts
2 | Tmem8b: closest relative of Myomaker/Tmem8c, not muscle-specific (protein, UniProt B1AWJ5 1-472, looked up) Transmembrane protein 8B: MNMPQSLGTQPLPPEPPSLGTPIEGSGAIAPTEHCWPVRPTLRNELDTFSVHFYIFFGPSVALPPERPAVFALRLLPVLDSGGVLSLELQLNASSLRQENVTVFGCLTHEVPLSLGDAAVTCSKESLAGFLLSVSATSRVARLRIPFPQTGTWFLTLRSLCGVGPRFVRCRNATAEVRLRTFLSPCVDDCGPYGQCKLLRTHNYLYAACECKAGWRGWGCTDSADALTYGFQLLSTLLLCLSNLMFLPPVVLAIRSRYVLEAAVYTFTMFFSTFYHACDQPGIVVFCIMDYDVLQFCDFLGSLMSVWVTVIAMARLQPVIKQVLYLLGAMLLSMALQLDRHGLWNLLGPSLFALGILATAWTVRSVRRRHCYPPTWRRWLFYLCPGSLIAGSAVLLYAFVETRDNYFYIHSIWHMLIAGSVGFLLPPRAKTDRRVPSGARARGCGYQLCINEQEELGLVGPGGTTVSSICVS | did not promote fusion | – | –
